Measurements from patent US20190017096A1.

Biological target: Rab6a (Ras-related protein Rab-6A) (Homo sapiens (Human)) (UniProt P20340)
Experiment: cell-based or functional assay

UniProt P20340, sequence (P20340 whole entry): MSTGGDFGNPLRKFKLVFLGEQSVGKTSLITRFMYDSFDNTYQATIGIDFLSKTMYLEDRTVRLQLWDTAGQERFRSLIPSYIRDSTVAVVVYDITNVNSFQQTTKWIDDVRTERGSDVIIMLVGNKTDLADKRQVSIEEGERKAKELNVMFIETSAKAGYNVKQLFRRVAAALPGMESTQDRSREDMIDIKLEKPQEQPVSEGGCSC

band intensity of biotinylated Rab6a (FIG. 3) compared to biotinylated Rab27a (FIG. 2), positive controls spiked with fish REP1 [fold]	biotinylated substrate with Rab6a compared to Rab27a (in vitro prenylation, WB; untransduced 293 lysate, endogenous REP1, FIG. 9) [fold]	strength of the WB signal for biotinylated Rab6a (FIG. 3) compared to biotinylated Rab27a (FIG. 2), AAV-REP1 transduced cells [fold]	Substance
100	–	–	fish REP1
–	2.5	10	human Rab escort protein 1 (REP1) (from UniProt P24386 1-653)
